Source: US20100184134A1 (SUTRO BIOPHARMA, published 2010)
Residue numbers refer to the chain shown, from its start. Names and notes keep the numbering of the source.

How the values were obtained:
PheT K = molecular target: T1, PheT K (E. coli, UniProt P07395 1-795); experiment: IMAC co-purification after cell-free co-synthesis of PheS(A294G) and PheT variant
T1 construct: also called PheT R794K
T1 sequence: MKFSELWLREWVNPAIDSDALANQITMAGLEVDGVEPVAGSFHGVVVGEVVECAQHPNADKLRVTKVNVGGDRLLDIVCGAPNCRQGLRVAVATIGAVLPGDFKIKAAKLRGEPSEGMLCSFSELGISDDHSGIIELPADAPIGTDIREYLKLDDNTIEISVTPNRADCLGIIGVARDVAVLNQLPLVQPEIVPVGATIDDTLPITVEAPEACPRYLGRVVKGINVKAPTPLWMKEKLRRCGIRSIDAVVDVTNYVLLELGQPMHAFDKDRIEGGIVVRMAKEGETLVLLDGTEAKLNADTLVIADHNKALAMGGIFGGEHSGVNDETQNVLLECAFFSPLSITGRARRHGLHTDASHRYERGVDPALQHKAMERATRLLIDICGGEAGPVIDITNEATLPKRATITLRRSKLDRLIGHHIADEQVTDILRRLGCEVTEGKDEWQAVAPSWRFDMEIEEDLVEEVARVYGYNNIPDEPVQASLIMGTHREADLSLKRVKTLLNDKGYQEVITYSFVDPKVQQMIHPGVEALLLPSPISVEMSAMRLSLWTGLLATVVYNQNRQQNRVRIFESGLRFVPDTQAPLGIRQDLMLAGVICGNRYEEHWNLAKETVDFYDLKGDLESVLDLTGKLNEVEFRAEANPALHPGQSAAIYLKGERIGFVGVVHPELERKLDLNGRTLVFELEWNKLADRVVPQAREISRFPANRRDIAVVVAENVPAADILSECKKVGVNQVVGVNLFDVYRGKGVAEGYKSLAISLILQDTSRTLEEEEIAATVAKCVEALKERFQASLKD

PheT AP = molecular target: T2, PheT AP (E. coli, UniProt P07395 1-795); experiment: as above
T2 construct: also called PheT R794A A791P
T2 sequence: T1 sequence with A791P, K794A

PheT KV = molecular target: T3, PheT KV (E. coli, UniProt P07395 1-795); experiment: as above
T3 construct: also called PheT R794K A15V
T3 sequence: T1 sequence with A15V

PheT MP = molecular target: T4, PheT MP (E. coli, UniProt P07395 1-795); experiment: as above
T4 construct: also called PheT R794M R788P
T4 sequence: T1 sequence with R788P, K794M

[1] = molecular target: T5, E. coli PheT subunit of phenylalanyl-tRNA synthetase (E. coli, UniProt P07395 1-795); experiment: IMAC pull-down of cell-free produced PheRS(A294G)
T5 construct: also called PheT domain
T5 sequence: T1 sequence with K794R

Measured: binding result

B1: 6X His-tagged E. coli PheS(A294G) subunit of phenylalanyl-tRNA synthetase (enzyme)
chain: MSHLAELVASAKAAISQASDVAALDNVRVEYLGKKGHLTLQMTTLRELPPEERPAAGAVINEAKEQVQQALNARKAELESAALNARLAAETIDVSLPGRRIENGGLHPVTRTIDRIESFFGELGFTVATGPEIEDDYHNFDALNIPGHHPARADHDTFWFDTTRLLRTQTSGVQIRTMKAQQPPIRIIAPGRVYRNDYDQTHTPMFHQMEGLIVDTNISFTNLKGTLHDFLRNFFEEDLQIRFRPSYFPFTEPSAEVDVMGKNGKWLEVLGCGMVHPNVLRNVGIDPEVYSGFGFGMGMERLTMLRYGVTDLRSFFENDLRFLKQFK
notes: also called 6XHisPheS(A294G); PheS(A294G) domain
binds: all assays above
